Experimental data reported in the supplement of paper PMC9170038.

Test system: MS2 coat protein
Assay: apparent KD of MS2 coat protein; designed switch direction (-1 OFF switch, 1 ON switch): -1; higher = weaker reporter binding
In short: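 Normalised cluster fluorescence was curve-fitted, and each design's median over clusters is its apparent KD. Before this, SNAP-549-labelled MS2 coat protein was titrated from 0.7 or 1.5 nM, doubling to 3 µM, over RNA switches transcribed on Illumina chips by stalled E. coli RNA polymerase. Titrations had no input, 200 uM small-molecule ligand, or an oligonucleotide input, and steps lasted 0.8–1.5 h (lowest) to 10–20 min (highest).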

[1] = Eterna round: R95, input ligand: FMN 200 uM
[2] = Eterna round: R95, input ligand: microRNA oligo, concentration not stated
[3] = Eterna round: R95, input ligand: none

Sequence	apparent KD of MS2 coat protein [1] [nM]	apparent KD of MS2 coat protein [2] [nM]	apparent KD of MS2 coat protein [3] [nM]	apparent KD of MS2 coat protein (input ligand: FMN 200 uM) [nM]	apparent KD of MS2 coat protein (input ligand: none) [nM]	apparent KD of MS2 coat protein (input ligand: microRNA oligo, concentration not stated) [nM]
GAGAGGUCAGGAUAUACGGAGAGAGGGAGUAGGUGAGGGUAACAUGAGGAUCACCCAUGUAGAAGGGACUAAGG [JR_Exclu2_Sub076] (puzzle: Exclusion 2)	26.4	27.4	39.9			
GAGCAGCGAGGAUAUACAGACGGGUCCAGUACGUGUCUUGGACUUGAGGAUCACCCAAGUAGAAGGCGUCUCAG [salish99_ex2_r4_608] (Eterna round: R97, puzzle: Exclusion 2)				86.8	44.3	
GAGCCGCGAGGAUAUACAGACGAGUCCAUUACGUGUCUCGGACUUGAGGAUCACCCAAGUAGAAGGCGUCUCAG [salish99_ex2_r4_629] (Eterna round: R97, puzzle: Exclusion 2)				34.3	34.2	
GAGCUAUGAGGAUAUGCAUAUAUACGGAUUCGUGUAGUACUACAUGAGGAUCACCCAUGUAGAAGGCGUGGCAG [Mat - Exclusion 2 - Mod of JL - D77] (puzzle: Exclusion 2)		12.1				
GAGCUAUGAGGAUAUGCAUAUAUACGGUUUCGUGUGGUACUACAUGAGGAUCACCCAUGUAGAAGGCGUGGCAG [Mat - Exclusion 2 - Mod of JL - D78] (puzzle: Exclusion 2)		16.7				
GAGCUAUGAGGAUAUGCAUAUAUGCGGUUUCGUGUGGUACUACAUGAGGAUCACCCAUGUAGAAGGCGUGGCUG [JL-ex2-2.06 mat747 mod] (puzzle: Exclusion 2)		14				
GAGCUGAACUCAGGAUAUUGCGAGUCUUGGGUGACAGCUCUGACAUGAGGAUCACCCAUGUACUCCGAGAAGGGAGGCCGGUAA [Zainve] (Eterna round: R96, puzzle: Exclusion NG 2)				125	185	113
GAGGAACAUGAGGAUCACCCAUGUAAGGAUAUGCAUAGCGAGGUAGUAGAAGGUGAAGGCAGAAGGUACACGGA [JR_Exclu1_Sub076] (puzzle: Exclusion 1)	31.3	34.2	43.8			
GAGGAACAUGAGGAUCACCCAUGUAAGGAUAUGCGAGACUAAAGCGCGCAGGCUAAGAGCAGAAGGUGCAAGGA [Excls1-IIa] (puzzle: Exclusion 1)	36	28.7	32.8			
GAGGAGACAGGAUAUACAUGAGGAUCACCCAUGUGAGGAGGAGGAGAGAGGAGAAGGAGUAGAAGGGUCAGAGA [JR_Exclu3_Sub024] (puzzle: Exclusion 3)	45.1	33.7	73.8			
GAGGCAUGCCGAGGUCCACACAUGAGGAUCACCCAUGUAAUGACAGGCUUUUUACUCGUUUUAUCGCUAUCGCGUUC [Incebece] (puzzle: Sensor v3, turn-off variant 1)	13.5	26.4	12.8			
GAGGGACAUGAGGAUCACCCAUGUGAGGAUAUGUAAGAGAGAGGAGAGAGGAUAAGAAACAGAAGGCGCGUGAG [JR_Exclu1_Sub089] (puzzle: Exclusion 1)	30.1	55.7	43.2			
GAGGGACAUGAGGAUCACCCAUGUGAGGAUAUGUGAGAAGGAUUGGAGAGAAUAAGAAACAGAAGGCGCGGGAG [JR_Exclu1_Sub087] (puzzle: Exclusion 1)	48.9	52.5	116			
GAGGUUUCAGGAUAUACAUGAGGAUCACCCAUGUUAUUAGUGUGGAUUGGUGUCCUGCGUAGAAGGGAGUAUAA [Eternabot (L2) Solution 93] (Eterna round: R97, puzzle: Exclusion 3)				65.7	57.2	
GAGUAGAGAGGAUAUGCAAUGAUCAUCGUACGAUGAGGCUGACAUGAGGAUCACCCAUGUAGAAGGCUCUGAUC [EX2 #19] (Eterna round: R97, puzzle: Exclusion 2)				22.1	30.7	
GAGUAGGGAGGAUAUGCAGAAUGACUCGUAAGUAAGAUAGGACAUGAGGAUCACCCAUGUAGAAGGCUCUGAUG [jun14#1] (Eterna round: R97, puzzle: Exclusion 2)				46.3	42	
GAGUGACAUGAGGAUCACCCAUGUAAGGAUAUACGGUUGGUAGAGAGAGGGAGAAAGGGUAGAAGGUACGAAGG [JR_Exclu1_Sub053] (puzzle: Exclusion 1)	45.5	44.1	101			
GAGUGACAUGAGGAUCACCCAUGUAAGGAUAUACGGUUGGUAGAGAGAGGGCUAAAGGGUAGAAGGUACGAAGG [JR_Exclu1_Sub055] (puzzle: Exclusion 1)		63.1				
GAGUGACAUGAGGAUCACCCAUGUGAGGAUAUCGGACGGACCAAAUUAACAAUAAAAGCGAGAAGGCACAUCGG [Exclusion 1 V12] (puzzle: Exclusion 1)	64.7	57.6	66.5			
GAGUGACAUGAGGAUCACCCAUGUGAGGAUAUCGGACGGACCAAAUUAACAAUAUUUGCGAGAAGGCACAUCGG [Exclusion 1 V17] (puzzle: Exclusion 1)		82.2				
GAGUGACAUGAGGAUCACCCAUGUGAGGAUAUCGGACGGACCUUGUUGGCUUCCGCCGCGAGAAGGCACAUCGG [Exclusion 1 V26] (puzzle: Exclusion 1)		87.5				
GAGUGCCGAGGAUAUACAAAUAUCCGCUAAUUAAUGCGAAAACAUGAGGAUCACCCAUGUAGAAGGCUGCACUC [AK-MS2ROC-r4-exclusion2-3] (Eterna round: R97, puzzle: Exclusion 2)				13.9	9.44	
GAGUGCUGAGGAUAUACAUGAGGAUCACCCAUGUGCUUCAGCUAGGAGACUAGCAUCGGUAGAAGGCAGUACUC [Mod of lroppy 18 - Jieux - Exclusion 3] (Eterna round: R97, puzzle: Exclusion 3)				60.1	17.2	
GAGUUAACGUGAGGAAUAUACAUGAGGAUCACCCAUGUUAACAAAUAUAUUGCUCGUCUUAUAACAACAAUUAACUC [Alarm 7 - Jieux - Sensor, turn-off variant 1] (Eterna round: R97, puzzle: Sensor, turn-off variant 1)				22.9	22.8	
GAGUUACAUGAGGAUCACCCAUGUGAGGAUAUGAGUCAGUCACGGUGACGUGGCUGACUCAGAAGGCACUAUGG [Mat - Exclusion 1 - JL Mod - D43] (Eterna round: R97, puzzle: Exclusion 1)				52.8	233	
GAGUUAGCGUGAGGAAUAUACAUGAGGAUCACCCAUGUUAACAAAUAUAUUGCUCGUCUUAUAACAACAAUUAACUC [Alarm 8 - Jieux - Sensor, turn-off variant 1] (Eterna round: R97, puzzle: Sensor, turn-off variant 1)				14.9	16.5	
GAGUUAGCGUGAGGAAUAUACAUGAGGAUCACCCAUGUUAGCUAAUAUAUUGCUCGUCUUAUAACAACAAUUAACUG [Mod JX-Electric-eye] (Eterna round: R97, puzzle: Sensor, turn-off variant 1)				14.2	15.9	
